A short description of data set [1]: Stability in mouse whole blood. The data set is classed as in vitro ADME. Conditions: 0.12 mg/mL Dox, 37° C., up to one hour. The protocol:
FIG. 13 illustrates stability in mouse whole blood. […] As 0.5 mM EDTA was used as an anticoagulant, HerDox in EDTA alone (− blood) was processed in parallel. Bars represent fluorescence of retained (retentates) or released (filtrates) Dox as a percentage of the total fluorescence of each sample. Scale of Y-axis is adjusted to show presence of filtrate samples. N=3 per treatment.
(A) depicts a graphic of HerDox formed by non-covalent, serum-stable self-assembly, showing HerPBK10 with functional domains delineated, and electrophilic binding with Dox-intercalated ds-oligo. (B) depicts a CryoEM image of HerDox particles. (C) is a HPLC chromatogram of HerDox showing elution profile of Dox absorbance. […] (D) illustrates the protection of ds-oligo from serum nuclease digestion by HerPBK10. The ds-oligo was incubated for 20 min in 100% mouse serum (Abcam, Cambridge, Mass., USA) before PAGE and EtBr staining to visualize the DNA. (E) illustrates that HerDox remains stable in blood. […] N=3. *, p<0.05, compared to respective retentates.
As the anticoagulant, 0.5 mM EDTA, was present in the blood collection, parallel samples were incubated at 37° C. in EDTA alone. Samples representing input HerDox (before incubation in blood) were incubated at 37° C. in HEPES-buffered saline.

In data set [2] the test system is GFP(+) MDA-MB-231 (HER2−). In words: Targeting in a mixed cell culture. The data set is classed as cell-based, human. Conditions: 0.5 μM Dox, day 2. The method, then: (§1) FIG. 9 (A) illustrates targeting in a mixed cell culture.
(§2) FIG. 9 (B) further illustrates targeting in a mixed cell culture. Cell survival was determined by calculating the relative doubling time (DT) of experimental (exp) cells normalized by control (con) cells based on the crystal violet stains (total cells) and GFP fluorescence (MDA-MB-231 cells). The DT of MDA-MB-435 was determined by subtracting the DT of MDA-MB-231 from the total cell DT. Relative survival is shown for Day 2 of treatment.
(§3) By three days, HerDox reduced HER2+ cell numbers by over 75% whereas HER2− cell survival was unaffected (FIG. 7). […] These findings emphasize the importance of targeting by showing that the untargeted drug affects nontarget (i.e. HER2−) cells. […] To test receptor targeting, the inventors used free heregulin ligand (Her or eHRG) as a competitive inhibitor. […] As a final in vitro challenge, the inventors tested whether HerDox induces toxicity specifically to HER2+ cells in a mixed culture of HER2+ and HER2− breast cancer cells. To do this, the inventors produced a HER2− cell line tagged with green fluorescent protein (GFP) for cell identification in the mixed culture (FIG. 9-A). […] Altogether, these findings indicate that HerDox has the capacity to preferentially target toxicity to HER2+ cells. […] In serum-containing media, no such loss from HerDox is detectable. […]

The subject of data set [3] is MDA-MB-435 (non-GFP, HER2+). Nature of the data set: Targeting in a mixed cell culture. The data set is classed as cell-based, human. To be noted: 0.5 μM Dox, day 2. The protocol:
as §1, §2, §3

Data set [4] in a line: HerDox stability in serum-containing media. Type of data set: in vitro ADME. Conditions: 10% fetal bovine serum media, 37° C. The method, then: FIG. 6 (B) mimics extended exposure of HerDox to cells in culture medium. HerDox immobilized on Ni-NTA beads were incubated with bovine serum in DMEM for the indicated times at 37° C. before each sample was pelleted. […] Relative Dox release or retention in serum is expressed as normalized to control (corresponding sample lacking serum). N=3 per time point.
The inventors tested the stability of HerDox over 12 days under different storage temperatures: 40° C., room temperature, or 37° C. […] The inventors also examined HerDox stability in serum-containing media at 37° C. […] Dox retention in the conjugate was also assessed by eluting the conjugate from the beads at each time point.

Data set [5] relates to MDA-MB-435 cells. In words: Intracellular translocation of HerDox and Dox (microscopy). The data set is classed as cell-based, human. The protocol: Live (unfixed) cells were imaged by brightfield and fluorescence microscopy.
Live (unfixed) cells were imaged by DIC and confocal fluorescence microscopy.
FIG. 15 illustrates HerDox trafficking in breast cancer cells. Cells incubated with HerDox at 37° C. were fixed at the indicated time points and processed for immunofluorescence using an antibody against HerPBK10. Images were captured using confocal microscopy under fluorescence and brightfield. n, nucleus; Bar, ˜8 microns.

Data set [6] deals with MDA-MB-435 (HER2+). Nature of the data set: Targeted toxicity, cell survival by MTT assay. Type of data set: cell-based, human. The protocol: (§4) FIG. 7 illustrates targeted toxicity. […] Cell titer was determined by metabolic (i.e. MTT) assay. FIG. 7 upper panel illustrates the effect of HerDox on MDA-MB-231 (HER2−) and MDA-MB-435 (HER2+) cell survival. Relative surviving cell numbers are represented as a % of corresponding untreated cells. […] Relative survival (as % of untreated cells) is shown for Day 3 of treatment.
FIG. 8 illustrates receptor specificity. MDA-MB-435 (HER2+) cells were incubated with free ligand (eHRG) at 10× molar excess of HerDox for one hour at 4° C. Media was aspirated to remove free eHRG and fresh media containing HerDox (0.5 μM) was added to cells. Cell survival was measured by MTT assay and represented as a % of relative untreated cell numbers.
(§5) N=3. […] Bar, about 4 μm. […] (E) compares HerDox and Dox on off-target tissue. […] Green fluorescence in nuclei indicates apoptosis (positive TUNEL stain).
(§6) By three days, HerDox reduced HER2+ cell numbers by over 75% whereas HER2− cell survival was unaffected (FIG. 7). […] These findings emphasize the importance of targeting by showing that the untargeted drug affects nontarget (i.e. HER2−) cells. […] To test receptor targeting, the inventors used free heregulin ligand (Her or eHRG) as a competitive inhibitor. […] As a final in vitro challenge, the inventors tested whether HerDox induces toxicity specifically to HER2+ cells in a mixed culture of HER2+ and HER2− breast cancer cells. To do this, the inventors produced a HER2− cell line tagged with green fluorescent protein (GFP) for cell identification in the mixed culture (FIG. 9-A). […] Altogether, these findings indicate that HerDox has the capacity to preferentially target toxicity to HER2+ cells. […] In serum-containing media, no such loss from HerDox is detectable. […] Co-migration of HerPBK10 bands further verified that the conjugates remained intact in the cell media.
In general terms: Formazan colour is commonly taken as a measure of viable cells.

For data set [7], the system named is JIMT-1 tumors. Nature of the data set: Trastuzumab-resistant tumor growth in vivo. On the set-up: species or system mouse. Conditions: 0.004 mg Dox/kg/injection, twice-weekly IV. The protocol: (§7) Tumor volumes were measured by calipers. Day 0 corresponds to first day of treatment. N=10 tumors per treatment.
as §7
The efficacy of HerDox was also examined on a cell line with pre-existing resistance.
The contribution of HER3 to targeted toxicity was evaluated by assessing whether pre-adsorbing HerDox with a peptide comprising the ligand-binding domain of HER3 blocked cytotoxicity.

Data set [8] concerns MDA-MB-231 (HER2−). Nature of the data set: Targeted toxicity, cell survival by MTT assay. The data set is classed as cell-based, human. Conditions: 0.5 μM with respect to Dox; HerPBK10 0.1 μM; day 3. The protocol: as §4, §5, §6

B1: HerDox: non-covalent complex of HerPBK10, double-stranded oligonucleotide and intercalated Dox (Unit A+Unit B+Unit C) (conjugate)
chain: SHLVKCAEKEKTFCVNGGECFMVKDLSNPSRYLCKCQPGFTGARCTENVPMKVQNQEKAEELYQKMRRAAMYEEGPPPSYESVVSAAPVAAALGSPFDAPLDPPFVPPRYLRPTGGRNSIRYSELAPLFDTTRVYLVDNKSTDVASLNYQNDHSNFLTTVIQNNDYSPGEASTQTINLDDRSHWGGDLKTILHTNMPNVNEFMFTNKFKARVMVSRLPTKDNQVELKYEWVEFTLPEGNYSETMTIDLMNNAIVEHYLKVGRQNGVLESDIGVKFDTRNFRLGFDPVTGLVMPGVYTNEAFHPDIILLPGCGVDFTHSRLSNLLGIRKRQPFQEGFRITYDDLEGGNIPALLDVDAYQASLKDDTEQGGGGAGGSNSSGSGAEENSNAAAAAMQPVEDMNDHAIRGDTFATRAEEKRAEAEAAAEAAAPAAQPEVEKPQKKPVIKPLTEDSKKRSYNLISNDSTFTQYRSWYLAYNYGDPQTGIRSWTLLCTPDVTCGSEQVYWSLPDMMQDPVTFRSTRQISNFPVVGAELLPVHSKSFYNDQAVYSQLIRQFTSLTHVFNRFPENQILARPPAPTITTVSENVPALTDHGTLPLRNSIGGVQRVTITDARRRTCPYVYKALGIVSPRVLSSRTFKKKKKKKKKK
modifications: left off: small tags and cut ends
In the case of B1, the “loss of Dox from conjugate in whole blood” value in data set [1] is “no detectable loss of Dox from the conjugate”. The “GFP (HER2−) cell growth in mixed culture” value in data set [2] is listed as “not altered”. Moreover, the “non-GFP (HER2+) cell proliferation in mixed culture” value in data set [3] is reported as “nearly completely reduced”. Further, the “Dox release from conjugate in serum” value in data set [4] is “no significant release of Dox”. Besides, in data set [4] (each time point), the “Dox retention by conjugate in serum” value is given as “completely retained”. The “intracellular location of Dox fluorescence” value in data set [5] (0 min of uptake, 0.5 μM) is on record as “mostly at the cell periphery”; in data set [5] (60 min) it was “accumulated in the nucleus”. Also, the “localization of HerPBK10 and Dox (immunofluorescence)” value in data set [5] (30 and 60 min) is recorded as “increasing levels of Dox accumulate in the nucleus while the majority of HerPBK10 remains in the cytoplasm”. Besides, in data set [5] (15 min of uptake), the “colocalization of HerPBK10 and Dox (immunofluorescence)” value is “HerPBK10 mostly colocalizes with Dox”. Moreover, in data set [5] (confocal, live cells), the “intranuclear pattern of Dox in live cells” value is on record as “preferentially accumulates in nucleolar structures”. In addition, the “reduction of HER2+ cell numbers” value in data set [6] (0.5 μM with respect to Dox, by three days) is “over 75%”. Further, the “cell killing with free heregulin ligand as competitive inhibitor” value in data set [6] (eHRG at 10× molar excess, HerDox 0.5 μM) is given as “completely inhibited cell killing”. Further, the “effect on JIMT-1 tumor growth” value in data set [7] was “ablated tumor growth”. Moreover, the “effect on HER2− cell survival” value in data set [8] is listed as “unaffected”.
